Laboratory results as given in patent US20240368295A1 (SUTRO BIOPHARMA, published 2024).
Where a chain is given by its changes, count along the chain named.

T1: BCMA on BCMA-positive NCI-H929, ARP-1 and U266B1 cells (human, UniProt Q02223 1-184)
T1 construct: they are human cell lines; also called B-cell maturation antigen; TNFRSF17
T1 sequence: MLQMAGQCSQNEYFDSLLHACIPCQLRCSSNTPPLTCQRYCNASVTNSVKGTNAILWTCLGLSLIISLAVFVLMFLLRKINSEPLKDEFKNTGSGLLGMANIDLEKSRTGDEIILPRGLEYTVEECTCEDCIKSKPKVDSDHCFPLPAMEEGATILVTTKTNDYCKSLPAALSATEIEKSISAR

T2: human BCMA-Fc (human, UniProt Q02223 5-51, limits assumed)
T2 construct: Bought from R&D Systems; also called huBCMA-Fc; BCMA-Fc (R&D Systems)
T2 chain (looked up): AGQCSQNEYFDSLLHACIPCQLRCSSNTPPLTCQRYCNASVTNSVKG

B1: 9E12 (antibody, V domains shown)
VH: AVTLDESGGGLQTPGGGLSLVCKASGFTFSDYGLGWMRQAPGKGLEYVARINSAGSGTYYGSAVDGRATISRDNGQSTVRLQLNNLRAEDTGTYYCTRGGGGASIDGWGHGTEVIVSS
VL: ALTQPSSVSANPGETVKITCSGGGSYYGSYYYGWYQQKSPGSAPVTLIYNNNNRPSDIPSRFSGSTSGSTGTLTITGVRAEDEAVYYCGSFDSSTDAIFGAGTTLTVL
notes: chicken HybriFree-derived antibody; also called Antibody 43
B2: 10E10 (antibody, V domains shown)
VH: AVTLDESGGGLQTPGGGLSLVCKASGFTFSSYGMGWMRQAPGKGLEFVARINSGGSSYTDYGSAVKGRATISRDDGQSTVRLQLNNLRAEDTGIYYCTRGGGGASIDGWGHGTEVIVSS
VL: B1 VL with S25N, Y27A, V45L, L47V, N51S, T66L, Y87F, S90G
notes: chicken HybriFree-derived antibody; also called Antibody 46
B3: 10F4 (antibody, V domains shown)
VH: AVTLDESGGGLQTPGGALSLVCKASGFTFSGYNMGWVRQAPGKGLEYVAGITYGTGSYTAYGAAVKGRATISRDNGQSTLRLQLNNLRAEDTATYYCARGGGLNSYGCSGANIDAWGHGTEVIVSS
VL: B1 VL with P12L, E14G, S25N, Y27F, S39A, L47V, G71S, T76S, Y87F, S90G
notes: chicken HybriFree-derived antibody; also called Antibody 37
B4: 9A5 (antibody, V domains shown)
VH: AVTLDESGGGLQTPGGAVSLVCKASGFSISDYGMGWMRQAPGKGLQYVARIDHDGRYTDYGAVVKGRATISRDNGQSTVRLQLNNLRAEDTGTYYCTRGGGAASIDTWGHGTEVIVSS
VL: B1 VL with S25N, Y27V, S29G, S39A, P44L, D57N, G71S, Y87F
notes: chicken HybriFree-derived antibody; also called Antibody 42
B5: 10H1 (antibody, V domains shown)
VH: B1 VH with G17A, D31G, L34M, G57D, Y59D, S62A, D65K, G92A, Y95F
VL: B1 VL with S25N, S39A, L47V, D57N, T66K, R79Q, Y87F, S90G, T95S
notes: chicken HybriFree-derived antibody; also called Antibody 45
B6: 9H1 (antibody, V domains shown)
VH: AVTLDESGGGLQTPGGALSLVCKGSGFTFSDYGMGWMRQAPGKGLQYVARINSAGSDTNYGSAVKGRATISRDDGQSTVRLQLSSLRAEDTGIYYCTRGGGGASIDGWGHGTEVIVSS
VL: B1 VL
notes: chicken HybriFree-derived antibody; also called Antibody 44

Assays:
[1] = biological target: T1, BCMA on BCMA-positive NCI-H929, ARP-1 …; test: FACS, NCI-H929 cells
Description: (§1) Variants for which sufficient protein was purified in secondary screening were tested in a fluorescence-activated cell sorting (FACS) cell-binding assay. […] 6-12 point dilutions of anti-BCMA variants starting from concentrations of about 100-200 nM antibody were dispensed into each well using a BioMekFX (Beckman Coulter). Cells were then incubated on ice for 1 hr, washed with FACS buffer and incubated for 1 hr on ice with […] FACS buffer containing […] Alexa647-conjugated Goat Anti-Human IgG dispensed using BioMekFX (Beckman Coulter). Cells were then washed 2× with FACS buffer and fixed for 10 minutes in […] PBS with 2% PFA prior to fluorescence detection. Samples were acquired using a Beckton Dickinson LSRII FACS. Geometric Mean Fluorescence Intensity of BCMA antibody binding was analyzed using FlowJo® software (Trec Star, Inc.).

[2] = biological target: cynomolgus BCMA on 293T-cynoBCMA cells (cynomolgus, UniProt Q02223 1-184 (human entry)); test: FACS, 293T-cynoBCMA cells
Chain of cynomolgus BCMA on 293T-cynoBCMA cells (Q02223 other isoform, or with tags, fused parts or gaps): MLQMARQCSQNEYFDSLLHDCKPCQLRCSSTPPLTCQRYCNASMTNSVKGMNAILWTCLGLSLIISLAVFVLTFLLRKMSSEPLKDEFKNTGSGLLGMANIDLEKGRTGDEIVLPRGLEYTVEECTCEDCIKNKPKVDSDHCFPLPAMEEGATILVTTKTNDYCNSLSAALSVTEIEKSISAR
Description: as §1

[3] = biological target: T1, BCMA on BCMA-positive NCI-H929, ARP-1 …; test: cell-based or functional assay
[4] = biological target: T3, rat BCMA on 293T-ratBCMA cells (rat); test: FACS, 293T-ratBCMA cells
T3 construct: whole, on cells

human BCMA-Fc = biological target: T2, human BCMA-Fc; test: SPR (Biacore), captured antibody

Binder	Bmax (MFI) [1] [MFI]	Bmax (MFI) [2] [MFI]	ARP-1, SC239-conjugated 2° antibody cell killing, EC50 [3] [nM]	ARP-1, SC239-conjugated 2° antibody cell killing, Span [3] [%]	U266B1, SC239-conjugated 2° antibody cell killing, EC50 [3] [nM]	U266B1, SC239-conjugated 2° antibody cell killing, Span [3] [%]	Bmax (MFI) [4] [MFI]	binding result (human BCMA-Fc)
B1	8140	13200	1.2	80	1.4	47	4690	
B2	3440	4540	3	46	2.5	20	906	
B3	18700	12800	1	87	0.36	81	410	no binding (tested: antigen 1-100 nM)
B4	19700	18200	0.7	93	0.29	84	2780	
B5	22500	21200	0.86	88	0.29	89	4350	
B6	6160	11400	1.3	74	1.1	50	3450	
